Assay results from the supplement of paper PMC10126150.
± gives the standard deviation of the averaged measurements.

Tested on: ATP
Experiment: switch fluorescence ratio, 500 uM ATP over buffer (Cy3 cluster intensity, sum of 5 cycles each) (fold (ratio)); higher = stronger signal-on switching upon ATP binding; sequences stand for … in TCGTCGGCAGCGTCAGATGTGTATAAGAGACAGTTTTTTTTTTTTTTTTTTTTTTTTT…TC
Settings: aptamer strand: ATP DNA aptamer (quencher-CACCTGGGGGAGTATTGCGGAGGAAGG + anchor), 100 nM annealed; ATP concentration: 500 uM
Method in brief: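 Cy3-labelled switching-strand clusters on a modified Illumina MiSeq flow-cell were annealed to 100 nM quencher-labelled ATP aptamer, imaged in selection buffer, then imaged after 15 min with 500 uM ATP at 22 °C. Five buffer/ATP cycles ran, with NaOH stripping and re-annealing between them. The fluorescence ratio is summed target-cycle over summed buffer-cycle Cy3 intensity per cluster, averaged per switch-domain sequence. Clusters outside 100-1000 RFU were excluded.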
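Note: ATP exposure 15 min at 22 °C before imaging.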

Sequence | switch fluorescence ratio
TAAAGGGGAG | 1.01 ± 0.019
GGGGGGGCTC | 0.965 ± 0.035
ATGGGCTATA | 1.03 ± 0.094
CGAGAGCCAC | 1.13 ± 0.047
GGTCTAGACG | 1.01 ± 0.044
GGGTCCACAG | 1.01 ± 0.04
ATAGGATTGC | 0.982 ± 0.011
TATGTGCAGG | 0.995 ± 0.015
ATTGGGCAGT | 0.973 ± 0.053
GACCGTTTGA | 1.03 ± 0.03
TAAGAGGGCT | 0.996 ± 0.022
ATGATTAATT | 1.03 ± 0.017
TTTGGGGTGT | 1.01 ± 0.06
GGGGAAAATT | 0.993 ± 0.036
ATTGGAAAAG | 0.985 ± 0.035
ATCTTTAGTA | 1 ± 0.014
TTTTCCGTTC | 1.02 ± 0.021
GAGGTGAGG | 0.989 ± 0.011
GGGGATCTTA | 1 ± 0.031
GTGATGGAAA | 0.964 ± 0.016
TGGGGCTAAT | 1.02 ± 0.034
GATTTAAGTT | 0.9988 ± 0.0098
CATGAATGGG | 1.01 ± 0.032
TAGGGAGATG | 0.996 ± 0.056
GAGTCAGAGG | 0.989 ± 0.039

Sequence | switch fluorescence ratio
CGGTAATATC | 1.915 ± 0.016
CAGGATGCCC | 0.9871 ± 0.0066
TTGGGGGCGT | 1.03 ± 0.058
AATAAAAGAT | 1 ± 0.017
TAAATCGGCA | 1.004 ± 0.0021
TTTAGAACTC | 1.19 ± 0.3
AATTTGGCAC | 1.05 ± 0.09
GGATACTAGT | 1.04 ± 0.069
CGGATGGGGG | 1.01 ± 0.046
GGGGGTCGGT | 1.01 ± 0.048
AGTTCGCTTT | 0.993 ± 0.028
CAATTGGACA | 0.982 ± 0.01
TTGGGTTTCA | 0.995 ± 0.053
CAAGTGGCAT | 1.017 ± 0.0079
CAGGAGGGCT | 0.993 ± 0.031
GTTGATTTTC | 1.017 ± 0.0079
TTGGTTTGAG | 1.016 ± 0.0031
ACGATGTACT | 1.1 ± 0.013
TAGGGGGGAT | 0.992 ± 0.035
TCATCGGCTC | 1.32 ± 0.11
AATTGGTTTT | 0.982 ± 0.034
GAGTACAGCT | 1.01 ± 0.018
GGAAAGTGAT | 1.2 ± 0.26
CCATTTATTT | 1.02 ± 0.019
GCAATTGTCG | 1.02 ± 0.046

Sequence | switch fluorescence ratio
TGTTTGTATT | 0.955 ± 0.03
CGGATTTGGG | 0.957 ± 0.067
ACCATAGAAT | 1.009 ± 0.0094
TTAAAGAGCG | 0.989 ± 0.04
AAAATGGATG | 0.983 ± 0.031
GTAAAAGGCG | 1 ± 0.024
CAACATGGAG | 0.9972 ± 0.0089
CGAGTACTGT | 0.994 ± 0.025
CAATTTAGTG | 1 ± 0.047
TCTGGGAGGC | 1.01 ± 0.021
TCCGAGGTTT | 1.28 ± 0.044
GTTCGGATGG | 1.015 ± 0.0032
GTTAGTAGAT | 1.01 ± 0.019
TGAGAGGTCT | 1.017 ± 0.0097
TTACATGGTA | 0.977 ± 0.0024
AATTAGAGTA | 0.994 ± 0.068
GAGTTAGTCA | 0.975 ± 0.024
TTCACGGGAT | 1.06 ± 0.035
TTGTGAGTCT | 1.01 ± 0.011
GGAGTTGTTA | 0.985 ± 0.013
TTTTACGGGT | 1.02 ± 0.087
AAATCCGCTT | 1.27 ± 0.26
TTGTTTGTAG | 1.03 ± 0.052
CACGGGTTGC | 1.02 ± 0.031
TCATGAGAGT | 0.998 ± 0.011

Sequence | switch fluorescence ratio
GGAAAAATGT | 1.01 ± 0.025
AAAAGCGGTA | 1 ± 0.054
TTAGTGATCT | 0.998 ± 0.015
GGAAAACCAG | 0.982 ± 0.048
CATTTGGAAG | 1.02 ± 0.061
TTGTGGGTAT | 0.954 ± 0.013
GGGAAAGGTG | 1.54 ± 0.11
ATATGAATAG | 1.01 ± 0.018
TTAAACTTAG | 0.992 ± 0.03
GTTTAATGGT | 0.9852 ± 0.009
AATGGAAGGG | 1.01 ± 0.013
CGGTTATACT | 1.25 ± 0.021
GAGCTATGTG | 1.03 ± 0.0011
CCGGGTGCTA | 2.36 ± 1.4
GAGGGGGCAA | 1.01 ± 0.016
AGGTTGGAGC | 1 ± 0.021
TTTATTGGTG | 1.03 ± 0.1
TTTCGATTGT | 0.988 ± 0.024
GGGTAAAAAG | 0.991 ± 0.018
GGTTGGACAG | 0.988 ± 0.011
GGGTTACGGG | 1.008 ± 0.0045
TTTGGGAGGG | 0.969 ± 0.02
AATAGCTAGT | 0.99272 ± 0.00015
GTTTGGGACG | 0.9905 ± 0.0082
ATCATAGCCG | 1.07 ± 0.14

Sequence | switch fluorescence ratio
AGCCCATACG | 1.2 ± 0.039
TAGGTTATTG | 0.995 ± 0.024
GAGGGGAAAT | 0.999 ± 0.029
CGTTTGGGTA | 0.999 ± 0.041
GGGAATCGGC | 1 ± 0.032
GTTAGAATAA | 0.958 ± 0.015
TGTAGGTTCT | 1.06 ± 0.051
AGGCGGCTGA | 1.05 ± 0.021
AACTGTGTAC | 1.056 ± 0.0085
CTAGGGTGGA | 1.05 ± 0.023
GGTGTTTCGT | 0.9735 ± 0.001
ATTTGGACGT | 1.02 ± 0.016
GCTAGGAGTA | 0.987 ± 0.0091
TCGGGGGGTA | 0.985 ± 0.021
TGGGTTAGTG | 0.962 ± 0.017
AGAATTGGGG | 0.982 ± 0.027
GTTTAAACTC | 0.961 ± 0.022
TTACTTGAGA | 0.99 ± 0.032
TTTGTGAGTT | 1.017 ± 0.0042
GGGTGTAGTA | 0.9978 ± 0.0079
TACATGGGTA | 0.9583 ± 0.0072
ATTTCGGGGT | 1.01 ± 0.042
ATTAGTCGGT | 0.97109 ± 0.00068
TATTTGTGTC | 0.982 ± 0.057
TCTTAGGTTG | 1.028 ± 0.0062

Sequence | switch fluorescence ratio
TCATGGGGTC | 0.975 ± 0.022
ATTGAGTTAG | 0.99 ± 0.011
AGTTTGATG | 0.986 ± 0.041
CTGTGTGGCC | 0.968 ± 0.073
ATTTGCGTAC | 1.277 ± 0.0018
TATTAATCGG | 0.97 ± 0.056
GGGGGTCTGA | 1 ± 0.024
GGGGCTAAGC | 1 ± 0.026
CAACCTGGGA | 1.022 ± 0.0017
TATACGGGGC | 1.01 ± 0.027
GCTACCGTTT | 1.04 ± 0.041
GGAGAAATTT | 0.9816 ± 0.0062
ATAGCGGACA | 0.967 ± 0.033
CCAACATGGG | 1.03 ± 0.02
GCTGAAGTTC | 0.993 ± 0.025
GGGATGTGGG | 1 ± 0.013
TAGGCGGGGA | 1.07 ± 0.059
TCCTGATTGC | 1.03 ± 0.038
TTTCTGCTTT | 1.04 ± 0.057
GAAAGAAAAA | 1.09 ± 0.043
ATAGGGGGTT | 0.98 ± 0.022
AGAACGGCCT | 1.01 ± 0.019
AAAGTAGGTT | 0.991 ± 0.023
GAGGCCGTTG | 1.02 ± 0.023
TATTTTTTTT | 1.01 ± 0.043

Sequence | switch fluorescence ratio
AGAGTAGGGA | 0.989 ± 0.02
AATTAGGTGC | 1.14 ± 0.077
AGTGGATGGG | 0.9858 ± 0.0031
ACAAAAAGGG | 1.02 ± 0.039
AACAGTGTTT | 0.971 ± 0.065
CTGGTTAGGA | 1 ± 0.066
CTGTTAAAGG | 0.999 ± 0.013
ATGTGGGTAC | 1.02 ± 0.026
ATAAAAAATA | 1 ± 0.025
GGGGGCAGCT | 1 ± 0.027
GATGTCCCGG | 0.987 ± 0.022
AATTTTAGGA | 0.98 ± 0.028
CGGAGGCGGT | 1.02 ± 0.047
GTTTGGGGGA | 0.9909 ± 0.0052
TTTGTGTGTC | 1 ± 0.025
TACGTCATTA | 1.2 ± 0.012
ATATGGGCTT | 0.986 ± 0.014
ATAGTTCCAT | 0.9783 ± 0.005
TATTTGTACT | 1 ± 0.013
GGAGGGCACG | 0.967 ± 0.053
TTAAGGGTTT | 1.01 ± 0.047
TTTCGGGCAT | 1.19 ± 0.31
TTCTTTATGT | 0.999 ± 0.021
GATTATAGTA | 0.952 ± 0.027
AAATATTGAG | 1 ± 0.015

Sequence | switch fluorescence ratio
GATTGGGGGC | 1.04 ± 0.12
GGGAATGGAA | 0.995 ± 0.014
CAGGAATAGG | 1.03 ± 0.012
GTAGGGATTA | 0.9779 ± 0.0064
AACCACAGGA | 1.057 ± 0.0019
AGGAATTTTA | 0.9554 ± 0.0062
TGAGTTCGTA | 1.02 ± 0.012
TTCTAAAGGT | 1.02 ± 0.04
CGGGGAAAGC | 0.985 ± 0.027
AAAAGGTGCG | 0.993 ± 0.013
AAGAGGTATA | 1.01 ± 0.032
TTATAAAAAG | 0.974 ± 0.042
TTGGTGACGC | 1.01 ± 0.026
AACAGGGGGA | 1.09 ± 0.14
CAGTGCATC | 0.972 ± 0.053
GGTGAATGCG | 0.9779 ± 0.0048
GGTCTGGCTT | 0.988 ± 0.052
GGGCTGTCAC | 0.997 ± 0.013
AAAAATGTTA | 1.01 ± 0.018
CGGCTGAATT | 1 ± 0.003
GTTGGCCTCT | 1.02 ± 0.022
GGGGGTCTGG | 0.9855 ± 0.0097
GGGACCCAGC | 0.992 ± 0.039
TAATTGCGGT | 1.007 ± 0.0045
TCAAACTGTT | 1.08 ± 0.025
